Here are results for twelve molecules from PMC4457826, “Crystal Structure of USP7 Ubiquitin-like Domains with an ICP0 Peptide Reveals a Novel Mechanism Used by Viral and Cellular Proteins to Target USP7” (PLoS Pathogens, 2015).

Experiment [1] concerns the target T1, myc-tagged USP7 D762R/D764R (human, UniProt Q93009 1-1102, D762R/D764R | D762R/D764R).
T1 construct: USP7, human, full length with D762R and D764R, sub-cloned into pCANmycUSP7; also called MRGR; D762R/D764R (MRGR) USP7; source: 293T cells, transfected (pCANmycUSP7), in lysate
Put plainly: co-IP; 293T cells transfected with myc-USP7 (with or without ICP0); RIPA lysate, anti-myc antibody and protein A/G agarose; Western blot for ICP0, GMPS or UHRF1. Conditions: partners not purified.

Experiment [2] deals with T2, USP7-CTD (535-1102) (human, UniProt Q93009 535-1102).
T2 construct: USP7, human, residues 535-1102 (spacer helix and five Ubl domains); Cloned in p15TV-L; also called WT USP7-CTD; C-terminal domain; source: E. coli BL21(DE3)mgk, purified (nickel-NTA, SEC)
Put plainly: pull-down; GST pull-down: 250 μg USP7 protein with 250 μg GST fusion in 50 mM Tris pH 8.0, 100 mM NaCl, 5 mM DTT, 5% glycerol, on glutathione-sepharose overnight at 4°C; eluted with 30 mM reduced glutathione; Coomassie stained gel. Conditions: both partners purified.

Experiment [3] addresses T3, full length USP7 (human, UniProt Q93009 1-1102).
T3 construct: Ubiquitin specific protease 7 (USP7, HAUSP), human, full length; also called FL-USP7; USP7-FL; source: Sf9 cells, purified (SEC)
Described as above. Conditions: both partners purified.

In experiment [4] the target is T4, USP7 Ubl123 (535-889) (human, UniProt Q93009 535-889).
T4 construct: USP7, human, residues 535-889 (spacer helix 535-560 and Ubl1-3); Cloned in p15TV-L; also called native Ubl123; source: E. coli BL21(DE3)mgk, purified (nickel-NTA, SEC)
The description is as above. Conditions: both partners purified.

Experiment [5] addresses T5, USP7 Ubl12 (535-776) (human, UniProt Q93009 535-776).
T5 construct: USP7, human, residues 535-776; Cloned in p15TV-L; source: E. coli BL21(DE3)mgk, purified (nickel-NTA, SEC)
The description is as above. Conditions: both partners purified.

For experiment [6], the target named is T2, USP7-CTD (535-1102). The experiment is described as follows: fluorescence polarisation; USP7 proteins titrated (0 to 200 μM) into 40 nM N-terminally FITC-labeled peptide; 0.01% Triton X-100, 150 mM NaCl, 20 mM Tris pH 7.5. The note with it: both partners purified.
Experiment [7] has as its target T2, USP7-CTD (535-1102). The experiment is described as follows: fluorescence polarisation; competition: fixed USP7-CTD (8 μM), 40 nM FITC-UHRF1, increasing unlabeled ICP0 peptide (0 to 2500 μM). Conditions: both partners purified.
Experiment [8] has as its target T6, USP7 Ubl123 D762A/D764A (human, UniProt Q93009 535-889, D762A/D764A | D762A/D764A).
T6 construct: USP7, human, residues 535-889 with D762A and D764A; Synthesized (Genscript), in pET15b; also called Ubl123 mutant D762A/D764A; source: E. coli BL21(DE3)mgk, purified (nickel-NTA, SEC)
Put plainly: fluorescence polarisation; USP7 proteins titrated (0 to 200 μM) into 40 nM N-terminally FITC-labeled peptide; 0.01% Triton X-100, 150 mM NaCl, 20 mM Tris pH 7.5. The note with it: both partners purified.

Experiment [9] has as its target T3, full length USP7. Described as above. The note with it: both partners purified.
Experiment [10] deals with T7, USP7 Ubl123 D764A (human, UniProt Q93009 535-889, D764A).
T7 construct: USP7, human, residues 535-889 with D764A; Synthesized (Genscript), in pET15b; also called Ubl123 mutant D764A; source: E. coli BL21(DE3)mgk, purified (nickel-NTA, SEC)
Described as above. Conditions: both partners purified.

The target of experiment [11] is T4, USP7 Ubl123 (535-889). Described as above. The note with it: both partners purified.
Experiment [12] addresses T8, USP7 Ubl123 D762A (human, UniProt Q93009 535-889, D762A).
T8 construct: USP7, human, residues 535-889 with D762A; Synthesized (Genscript), in pET15b; also called Ubl123 mutant D762A; source: E. coli BL21(DE3)mgk, purified (nickel-NTA, SEC)
The description is as above. Conditions: both partners purified.

Experiment [13] concerns the target T9, USP7 Ubl123 E759A (human, UniProt Q93009 535-889, E759A).
T9 construct: USP7, human, residues 535-889 with E759A; Synthesized (Genscript), in pET15b; also called Ubl123 mutant E759A; source: E. coli BL21(DE3)mgk, purified (nickel-NTA, SEC)
The description is as above. Conditions: both partners purified.

Primed or numbered codes have the meaning given here. No end group written: not given here. FITC′ = fluorescein isothiocyanate label; GST = glutathione S-transferase fusion Where only a bound is given, the exact number is not on record here.

T2 sequence (Q93009 535-1102): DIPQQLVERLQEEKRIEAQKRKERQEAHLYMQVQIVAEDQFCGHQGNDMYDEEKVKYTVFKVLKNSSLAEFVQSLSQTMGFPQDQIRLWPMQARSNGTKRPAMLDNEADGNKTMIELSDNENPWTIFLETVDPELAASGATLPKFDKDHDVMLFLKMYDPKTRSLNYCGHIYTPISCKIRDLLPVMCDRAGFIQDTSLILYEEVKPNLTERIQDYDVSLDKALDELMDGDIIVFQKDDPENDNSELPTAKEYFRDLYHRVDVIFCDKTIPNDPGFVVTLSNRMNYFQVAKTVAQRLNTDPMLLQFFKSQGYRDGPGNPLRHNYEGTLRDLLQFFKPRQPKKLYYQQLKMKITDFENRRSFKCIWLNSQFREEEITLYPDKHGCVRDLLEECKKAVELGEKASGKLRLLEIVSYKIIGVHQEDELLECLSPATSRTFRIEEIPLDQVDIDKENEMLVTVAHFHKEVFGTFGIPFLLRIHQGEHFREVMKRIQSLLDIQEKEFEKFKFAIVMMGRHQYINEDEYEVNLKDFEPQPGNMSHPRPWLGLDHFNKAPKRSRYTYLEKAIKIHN
T3 sequence (Q93009 whole entry): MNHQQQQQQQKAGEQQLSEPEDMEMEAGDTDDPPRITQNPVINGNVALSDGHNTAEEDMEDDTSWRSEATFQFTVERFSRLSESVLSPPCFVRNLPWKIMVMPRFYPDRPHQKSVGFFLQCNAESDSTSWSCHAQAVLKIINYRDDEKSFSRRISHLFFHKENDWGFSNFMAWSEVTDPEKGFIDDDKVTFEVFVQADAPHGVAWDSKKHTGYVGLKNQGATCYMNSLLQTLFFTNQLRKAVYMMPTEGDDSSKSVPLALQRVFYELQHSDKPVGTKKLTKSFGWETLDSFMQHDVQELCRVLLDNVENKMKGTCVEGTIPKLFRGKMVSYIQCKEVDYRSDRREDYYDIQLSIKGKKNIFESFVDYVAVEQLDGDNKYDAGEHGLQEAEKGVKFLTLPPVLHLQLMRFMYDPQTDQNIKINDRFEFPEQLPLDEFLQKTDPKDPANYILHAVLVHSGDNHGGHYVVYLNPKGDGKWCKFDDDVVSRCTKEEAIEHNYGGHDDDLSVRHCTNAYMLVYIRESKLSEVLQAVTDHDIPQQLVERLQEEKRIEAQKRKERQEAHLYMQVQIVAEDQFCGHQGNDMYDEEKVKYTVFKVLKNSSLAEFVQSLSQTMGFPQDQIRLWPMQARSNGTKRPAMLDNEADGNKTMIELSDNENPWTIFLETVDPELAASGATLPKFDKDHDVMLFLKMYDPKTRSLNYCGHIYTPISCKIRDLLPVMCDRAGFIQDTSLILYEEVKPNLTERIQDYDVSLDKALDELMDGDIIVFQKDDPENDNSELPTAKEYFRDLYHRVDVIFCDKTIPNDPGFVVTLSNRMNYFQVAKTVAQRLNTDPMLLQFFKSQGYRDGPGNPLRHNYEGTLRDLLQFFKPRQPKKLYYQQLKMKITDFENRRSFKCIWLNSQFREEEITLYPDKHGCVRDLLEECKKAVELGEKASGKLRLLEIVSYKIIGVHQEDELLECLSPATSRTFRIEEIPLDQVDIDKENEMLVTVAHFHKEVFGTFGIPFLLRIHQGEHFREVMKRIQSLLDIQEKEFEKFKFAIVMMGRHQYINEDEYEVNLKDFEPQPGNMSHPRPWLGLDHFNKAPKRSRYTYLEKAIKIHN
T1 sequence (Q93009 whole entry D762R/D764R): as the sequence (Q93009 whole entry) above, with D762R, D764R counted along it
T4 sequence (Q93009 535-889): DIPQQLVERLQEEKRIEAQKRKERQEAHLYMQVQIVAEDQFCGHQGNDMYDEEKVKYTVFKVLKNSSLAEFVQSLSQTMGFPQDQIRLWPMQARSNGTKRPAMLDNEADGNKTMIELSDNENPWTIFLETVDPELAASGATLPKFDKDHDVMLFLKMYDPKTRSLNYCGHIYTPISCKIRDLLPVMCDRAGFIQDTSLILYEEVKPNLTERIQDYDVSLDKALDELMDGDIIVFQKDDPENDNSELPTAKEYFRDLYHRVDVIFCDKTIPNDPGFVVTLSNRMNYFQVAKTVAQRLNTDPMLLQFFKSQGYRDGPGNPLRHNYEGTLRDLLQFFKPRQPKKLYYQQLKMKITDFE
T8 sequence (Q93009 535-889 D762A): as the sequence (Q93009 535-889) above, with D228A counted along it
T6 sequence (Q93009 535-889 D762A/D764A): as the sequence (Q93009 535-889) above, with D228A, D230A counted along it
T7 sequence (Q93009 535-889 D764A): as the sequence (Q93009 535-889) above, with D230A counted along it
T9 sequence (Q93009 535-889 E759A): as the sequence (Q93009 535-889) above, with E225A counted along it
T5 sequence (Q93009 535-776): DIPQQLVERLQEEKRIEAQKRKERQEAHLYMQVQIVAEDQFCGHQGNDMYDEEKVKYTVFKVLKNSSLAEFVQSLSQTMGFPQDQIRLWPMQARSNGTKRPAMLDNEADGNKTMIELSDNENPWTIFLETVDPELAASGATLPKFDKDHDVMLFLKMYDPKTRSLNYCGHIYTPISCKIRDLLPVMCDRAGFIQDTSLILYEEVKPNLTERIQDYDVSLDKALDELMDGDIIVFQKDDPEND

B1: ICP0 (expressed in 293T cells) (natural protein)
chain: MEPRPGASTRRPEGRPQREPAPDVWVFPCDRDLPDSSDSEAETEVGGRGDADHHDDDSASEADSTDTELFETGLLGPQGVDGGAVSGGSPPREEDPGSCGGAPPREDGGSDEGDVCAVCTDEIAPHLRCDTFPCMHRFCIPCMKTWMQLRNTCPLCNAKLVYLIVGVTPSGSFSTIPIVNDPQTRMEAEEAVRAGTAVDFIWTGNQRFAPRYLTLGGHTVRALSPTHPEPTTDEDDDDLDDADYVPPAPRRTPRAPPRRGAAAPPVTGGASHAAPQPAAARTAPPSAPIGPHGSSNTNTTTNSSGGGGSRQSRAAAPRGASGPSGGVGVGVGVVEAEAGRPRGRTGPLVNRPAPLANNRDPIVISDSPPASPHRPPAAPMPGSAPRPGPPASAAASGPARPRAAVAPCVRAPPPGPGPRAPAPGAEPAARPADARRVPQSHSSLAQAANQEQSLCRARATVARGSGGPGVEGGHGPSRGAAPSGAAPLPSAASVEQEAAVRPRKRRGSGQENPSPQSTRPPLAPAGAKRAATHPPSDSGPGGRGQGGPGTPLTSSAASASSSSASSSSAPTPAGAASSAAGAASSSASASSGGAVGALGGRQEETSLGPRAASGPRGPRKCARKTRHAETSGAVPAGGLTRYLPISGVSSVVALSPYVNKTITGDCLPILDMETGNIGAYVVLVDQTGNMATRLRAAVPGWSRRTLLPETAGNHVMPPEYPTAPASEWNSLWMTPVGNMLFDQGTLVGALDFRSLRSRHPWSGEQGASTRDEGKQ
notes: also called pCI-110 ICP0; source: 293T cells, transfected (pCI-110 ICP0), in lysate
For B1, in experiment [1], the “fold decrease of recovery against WT USP7” value was 2 fold.

B2: GST-ICP0 615-629 (peptide)
chain: PRGPRKCARKTRHAE
notes: ICP0 of herpes simplex virus 1, residues 615-629; also called ICP0 peptide 615–629; GST-ICP0 peptide; source: E. coli BL21(DE3), purified (glutathione-sepharose)
Take B2: the binding result in experiment [2], in experiment [3], in experiment [4] and in experiment [5] was “binds” in each case.

B3: GST-ICP0 611-625 (peptide)
chain: AASGPRGPRKCARKT
notes: ICP0 of herpes simplex virus 1, residues 611-625; also called ICP0 region 611–625; source: E. coli BL21(DE3), purified (glutathione-sepharose)
With B3, the binding result in experiment [2] and in [3] was “binds” throughout.

B4: FITC-GMPS peptide (peptide)
peptide: {FITC′}-DRTPRKRISKTLN
notes: GMP synthase (GMPS), residues 316-328 ('this GMPS peptide'); also called N-terminal FITC containing GMPS peptide; source: synthetic peptide (CanPeptide)
On to B4, for which the Kd in experiment [6] stood at 32 µM.

B5: GST-ICP0 619-633 (peptide)
chain: RKCARKTRHAETSGA
notes: ICP0 of herpes simplex virus 1, residues 619-633; also called ICP0 peptide 619–633; source: E. coli BL21(DE3), purified (glutathione-sepharose)
Regarding B5, the binding result in experiment [2] and in [3] was “binds” each time.

B6: GST-GMPS peptide (316-328) (peptide)
chain: {GST}-DRTPRKRISKTLN
notes: GMP synthase (GMPS), residues 316-328; also called WT GST-GMPS; source: E. coli BL21(DE3), purified (glutathione-sepharose)
In the case of B6, the binding result in experiment [2] was “binds”.
On to {FITC′}-TGKGKWKR [FITC-UHRF1 peptide], for which binding in experiment [6] was put at a Kd of 5.6 µM.

B7: GST-ICP0 594-775 (domain or fragment)
chain: AVGALGGRQEETSLGPRAASGPRGPRKCARKTRHAETSGAVPAGGLTRYLPISGVSSVVALSPYVNKTITGDCLPILDMETGNIGAYVVLVDQTGNMATRLRAAVPGWSRRTLLPETAGNHVMPPEYPTAPASEWNSLWMTPVGNMLFDQGTLVGALDFRSLRSRHPWSGEQGASTRDEGKQ
notes: ICP0 of herpes simplex virus 1, residues 594-775; also called longer ICP0 peptide; source: E. coli BL21(DE3), purified (glutathione-sepharose)
B7: the binding result in [2] is given as “binds”.

B8: endogenous UHRF1 (natural protein, human (endogenous in 293T), UniProt Q96T88 1-793, looked up)
chain: MWIQVRTMDGRQTHTVDSLSRLTKVEELRRKIQELFHVEPGLQRLFYRGKQMEDGHTLFDYEVRLNDTIQLLVRQSLVLPHSTKERDSELSDTDSGCCLGQSESDKSSTHGEAAAETDSRPADEDMWDETELGLYKVNEYVDARDTNMGAWFEAQVVRVTRKAPSRDEPCSSTSRPALEEDVIYHVKYDDYPENGVVQMNSRDVRARARTIIKWQDLEVGQVVMLNYNPDNPKERGFWYDAEISRKRETRTARELYANVVLGDDSLNDCRIIFVDEVFKIERPGEGSPMVDNPMRRKSGPSCKHCKDDVNRLCRVCACHLCGGRQDPDKQLMCDECDMAFHIYCLDPPLSSVPSEDEWYCPECRNDASEVVLAGERLRESKKKAKMASATSSSQRDWGKGMACVGRTKECTIVPSNHYGPIPGIPVGTMWRFRVQVSESGVHRPHVAGIHGRSNDGAYSLVLAGGYEDDVDHGNFFTYTGSGGRDLSGNKRTAEQSCDQKLTNTNRALALNCFAPINDQEGAEAKDWRSGKPVRVVRNVKGGKNSKYAPAEGNRYDGIYKVVKYWPEKGKSGFLVWRYLLRRDDDEPGPWTKEGKDRIKKLGLTMQYPEGYLEALANREREKENSKREEEEQQEGGFASPRTGKGKWKRKSAGGGPSRAGSPRRTSKKTKVEPYSLTAQQSSLIREDKSNAKLWNEVLASLKDRPASGSPFQLFLSKVEETFQCICCQELVFRPITTVCQHNVCKDCLDRSFRAQVFSCPACRYDLGRSYAMQVNQPLQTVLNQLFPGYGNGR
notes: UHRF1 (NP95), endogenous in 293T cells; also called NP95; source: endogenous, 293T lysate
On to B8, for which the “percent binding relative to recovery with WT USP7” value in [1] came out at 21%.
Consider GPRKCARKTRH (not fully specified) [unlabeled ICP0 peptide], for which the Ki in experiment [7] turned out to be 20.6 µM.

B9: endogenous GMPS (natural protein)
chain: not shown
notes: GMP synthase (GMPS), endogenous in 293T cells; also called GMP synthase; source: endogenous, 293T lysate
For B9, the “percent binding relative to recovery with WT USP7” value in [1] was 35%.
As to {FITC′}-GPRKCARKTRH [FITC-labeled ICP0 peptide], the Kd in [8] is more than 100 µM; in experiment [9], 3.2 µM; in experiment [10], more than 100 µM; in [11], 1.6 µM; in experiment [12] it was more than 100 µM; in experiment [13], more than 100 µM.
